From patent US20030143712A1 (J DAVID GLADSTONE INSTITUTES, published 2003)
Numbering of substitutions follows the chain as printed.

T1: endogenous HDAC3, O15379
T1 chain: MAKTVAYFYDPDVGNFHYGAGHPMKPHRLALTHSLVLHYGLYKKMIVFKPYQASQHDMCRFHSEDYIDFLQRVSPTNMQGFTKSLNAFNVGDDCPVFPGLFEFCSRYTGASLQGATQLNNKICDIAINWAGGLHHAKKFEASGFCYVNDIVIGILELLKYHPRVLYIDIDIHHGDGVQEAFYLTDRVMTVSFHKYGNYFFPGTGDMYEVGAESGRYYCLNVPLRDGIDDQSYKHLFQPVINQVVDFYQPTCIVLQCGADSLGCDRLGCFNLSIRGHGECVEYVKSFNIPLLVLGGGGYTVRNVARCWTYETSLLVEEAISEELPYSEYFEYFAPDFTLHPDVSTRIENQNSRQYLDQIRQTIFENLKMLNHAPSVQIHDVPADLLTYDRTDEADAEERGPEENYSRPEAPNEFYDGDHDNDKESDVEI

T2: FLAG-tagged HDAC7-ΔMEF (expressed in DO11.10 cells) (human, UniProt Q8WUI4 1-952)
T2 construct: not shown: FLAG tag
T2 sequence: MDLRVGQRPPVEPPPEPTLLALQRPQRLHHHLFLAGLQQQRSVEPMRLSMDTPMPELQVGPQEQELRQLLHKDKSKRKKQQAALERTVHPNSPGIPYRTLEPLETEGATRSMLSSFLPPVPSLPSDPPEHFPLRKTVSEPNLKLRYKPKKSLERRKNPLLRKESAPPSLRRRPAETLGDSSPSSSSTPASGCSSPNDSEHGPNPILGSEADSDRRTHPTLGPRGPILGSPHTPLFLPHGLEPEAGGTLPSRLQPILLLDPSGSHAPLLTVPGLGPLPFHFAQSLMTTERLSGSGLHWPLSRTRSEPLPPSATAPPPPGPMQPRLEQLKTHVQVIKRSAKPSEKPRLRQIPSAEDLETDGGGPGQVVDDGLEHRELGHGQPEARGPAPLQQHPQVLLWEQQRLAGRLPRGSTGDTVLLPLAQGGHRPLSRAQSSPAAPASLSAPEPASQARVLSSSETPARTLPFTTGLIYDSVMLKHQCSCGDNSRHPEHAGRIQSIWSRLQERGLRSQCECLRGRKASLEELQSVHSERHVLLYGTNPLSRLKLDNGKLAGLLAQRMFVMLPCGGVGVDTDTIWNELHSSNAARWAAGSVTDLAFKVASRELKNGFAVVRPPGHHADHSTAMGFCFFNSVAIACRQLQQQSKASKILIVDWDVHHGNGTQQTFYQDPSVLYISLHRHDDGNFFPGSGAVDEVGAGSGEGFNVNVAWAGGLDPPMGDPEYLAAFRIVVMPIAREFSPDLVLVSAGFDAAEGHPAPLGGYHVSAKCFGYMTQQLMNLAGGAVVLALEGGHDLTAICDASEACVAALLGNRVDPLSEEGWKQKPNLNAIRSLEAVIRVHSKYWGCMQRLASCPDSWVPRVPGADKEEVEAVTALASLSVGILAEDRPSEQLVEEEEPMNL

T3: FLAG-tagged HDAC7-K86AK88A (expressed in DO11.10 cells) (human, UniProt Q8WUI4 1-952)
T3 construct: not shown: FLAG tag
T3 sequence: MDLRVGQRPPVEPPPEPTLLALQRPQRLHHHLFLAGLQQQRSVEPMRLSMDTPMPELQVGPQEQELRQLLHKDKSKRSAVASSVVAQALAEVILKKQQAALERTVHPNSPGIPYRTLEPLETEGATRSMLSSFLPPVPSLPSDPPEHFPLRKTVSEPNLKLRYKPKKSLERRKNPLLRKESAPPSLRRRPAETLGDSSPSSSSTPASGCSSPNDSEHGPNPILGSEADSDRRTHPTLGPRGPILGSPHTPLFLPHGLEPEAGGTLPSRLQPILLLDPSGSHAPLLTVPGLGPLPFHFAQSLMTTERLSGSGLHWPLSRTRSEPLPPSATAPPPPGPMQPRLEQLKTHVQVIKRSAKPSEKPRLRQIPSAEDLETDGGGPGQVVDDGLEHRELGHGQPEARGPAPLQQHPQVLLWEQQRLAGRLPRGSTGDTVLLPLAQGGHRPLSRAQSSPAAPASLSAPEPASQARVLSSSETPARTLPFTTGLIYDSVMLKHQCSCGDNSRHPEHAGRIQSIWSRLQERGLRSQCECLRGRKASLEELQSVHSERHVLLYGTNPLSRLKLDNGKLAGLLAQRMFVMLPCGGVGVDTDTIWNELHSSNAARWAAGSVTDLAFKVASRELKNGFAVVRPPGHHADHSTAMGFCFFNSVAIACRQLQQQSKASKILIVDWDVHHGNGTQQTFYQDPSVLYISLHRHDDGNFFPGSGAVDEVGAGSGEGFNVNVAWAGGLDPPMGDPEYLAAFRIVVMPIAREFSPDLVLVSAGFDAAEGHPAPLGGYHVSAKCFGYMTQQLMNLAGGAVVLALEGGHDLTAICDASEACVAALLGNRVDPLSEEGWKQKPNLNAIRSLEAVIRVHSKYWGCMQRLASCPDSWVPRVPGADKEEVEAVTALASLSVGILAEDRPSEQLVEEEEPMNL

B1: GST-HDAC4(aa 612-1084) (enzyme, human, UniProt P56524 612-1084, looked up)
chain: MEAAGIPVSFGGHRPLSRAQSSPASATFPVSVQEPPTKPRFTTGLVYDTLMLKHQCTCGSSSSHPEHAGRIQSIWSRLQETGLRGKCECIRGRKATLEELQTVHSEAHTLLYGTNPLNRQKLDSKKLLGSLASVFVRLPCGGVGVDSDTIWNEVHSAGAARLAVGCVVELVFKVATGELKNGFAVVRPPGHHAEESTPMGFCYFNSVAVAAKLLQQRLSVSKILIVDWDVHHGNGTQQAFYSDPSVLYMSLHRYDDGNFFPGSGAPDEVGTGPGVGFNVNMAFTGGLDPPMGDAEYLAAFRTVVMPIASEFAPDVVLVSSGFDAVEGHPTPLGGYNLSARCFGYLTKQLMGLAGGRIVLALEGGHDLTAICDASEACVSALLGNELDPLPEKVLQQRPNANAVRSMEKVMEIHSKYWRCLQRTTSTAGRSLIEAQTCENEEAETVTAMASLSVGVKPAEKRPDEEPMEEEPPL
notes: range 612-1084; also called recombinant fusion protein corresponding to the catalytically active domain of HDAC4; not shown: glutathione-S-transferase (GST), fusion partner
B2: HDAC7-FLAG (full-length human HDAC7 with C-terminal FLAG tag, expressed in cells) (protein)
chain: T3 sequence with A86K, A88K
B3: endogenous MEF2D of DO11.10 T-cell hybridoma cells (other, UniProt Q63943 1-514, looked up)
chain: MGRKKIQIQRITDERNRQVTFTKRKFGLMKKAYELSVLCDCEIALIIFNHSNKLFQYASTDMDKVLLKYTEYNEPHESRTNADIIETLRKKGFNGCDSPEPDGEDSLEQSPLLEDKYRRASEELDGLFRRYGSSVPAPNFAMPVTVPVSNQSSMQFSNPSSSLVTPSLVTSSLTDPRLLSPQQPALQRNSVSPGLPQRPASAGAMLGGDLNSANGACPSPVGNGYVSARASPGLLPVANGNSLNKVIPAKSPPPPTHNTQLGAPSRKPDLRVITSQGGKGLMHHLTEDHLDLNNAQRLGVSQSTHSLTTPVVSVATPSLLSQGLPFSSMPTAYNTDYQLPSAELSSLPAFSSPAGLALGNVTAWQQPQPPQQPQPPQPPQSQPQPPQPQPQQPPQQQPHLVPVSLSNLIPGSPLPHVGAALTVTTHPHISIKSEPVSPSRERSPAPPPPAVFPAARPEPGEGLSSPAGGSYETGDRDDGRGDFGPTLGLLRPAPEPEAEGSAVKRMRLDTWTLK
B4: GST-HDAC7(aa 487-912) (enzyme)
chain: YDSVMLKHQCSCGDNSRHPEHAGRIQSIWSRLQERGLRSQCECLRGRKASLEELQSVHSERHVLLYGTNPLSRLKLDNGKLAGLLAQRMFVMLPCGGVGVDTDTIWNELHSSNAARWAAGSVTDLAFKVASRELKNGFAVVRPPGHHADHSTAMGFCFFNSVAIACRQLQQQSKASKILIVDWDVHHGNGTQQTFYQDPSVLYISLHRHDDGNFFPGSGAVDEVGAGSGEGFNVNVAWAGGLDPPMGDPEYLAAFRIVVMPIAREFSPDLVLVSAGFDAAEGHPAPLGGYHVSAKCFGYMTQQLMNLAGGAVVLALEGGHDLTAICDASEACVAALLGNRVDPLSEEGWKQKPNLNAIRSLEAVIRVHSKYWGCMQRLASCPDSWVPRVPGADKEEVEAVTALASLSVGILAEDRPSEQLVEEEEP
notes: not shown: glutathione-S-transferase (GST) of the pGEX4T1 vector (Pharmacia), N-terminal fusion partner
B5: endogenous HDAC3 (enzyme, UniProt O15379 1-428, looked up)
chain: T1 chain
notes: SupT1 and 293 are human cell lines

How the values were obtained:
endogenous HDAC1 = endogenous HDAC1 (UniProt Q13547 1-482); test: repeated incubation of 293 or SupT1 extracts with the GST fusion, western blot of the depleted extract
Procedure: (§1) Purity, as well as protein amount, was checked on SDS-PAGE gels stained with Coomassie Blue. […] After incubation for 3 hours at 4° C. with rocking, reactions were washed three times in IPLS, three times in the same buffer but at 1 M NaCl, and two times in HD buffer (Fischle et al., supra). Pulldown reactions were split, and either processed for histone deacetylase activity assays or for western blotting. For pulldown reactions with ³⁵S-labeled proteins, cDNAs were transcribed and translated with the TNT reticulocyte system (Promega). The labeling reaction (5 μl) was incubated with GST fusion proteins in a total volume of 200 μl of GST buffer (20 mM Tris-HCl, pH 8.0, 150 mM KCl, 5 mM DTT, 2 mM EDTA, 10% glycerol, 0.5% non fat dry milk, 0.1% NP-40) for 1 h at 4° C. with rocking. Reactions were washed five times in the same buffer, and bound proteins were resolved on denaturing SDS-PAGE gels for analysis by autoradiography.
(§2) First, we examined the possibility that GS\tilde{T}HDAC fusion proteins recruit common factors from cellular extracts.

endogenous HDAC3, O15379 = molecular target: T1, endogenous HDAC3, O15379
endogenous HDAC3 [1] = molecular target: B5; test: cell-based or functional assay
[2] = molecular target: T2, FLAG-tagged HDAC7-ΔMEF (expressed in …); test: anti-FLAG immunoprecipitation from DO11.10 polyclonal cell lines, endogenous MEF2D
Procedure: (§3) For FLAG-tagged proteins, M2-agarose (Sigma) antibody was used at 15 μl/ml. For immunoprecipitation of endogenous HDAC7, anti-HDAC7 antiserum was used at approximately 10 μg/ml in combination with 20μ/ml of preblocked (10 mg/ml of bovine serum albumin) 50% protein G-Sepharose slurry (Amersham Pharmacia Biotech). […] Bound proteins were subjected to SDS-PAGE electrophoresis and Western blot analysis.
(§4) After establishment of polyclonal cell lines, stably expressed protein were immunoprecipitated using an anti-FLAG antibody and assessed for binding to endogenous MEF2D.

[3] = molecular target: T3, FLAG-tagged HDAC7-K86AK88A (expressed …); test: as above
Procedure: as §3, §4

endogenous HDAC3 [4] = molecular target: B5; test: GST pull-down from SupT1 cell extracts, western blot
Procedure: After incubation for 3 hours at 4° C. with rocking, reactions were washed three times in IPLS, three times in the same buffer but at 1 M NaCl, and two times in HD buffer (Fischle et al., supra). Pulldown reactions were split, and either processed for histone deacetylase activity assays or for western blotting. For pulldown reactions with ³⁵S-labeled proteins, cDNAs were transcribed and translated with the TNT reticulocyte system (Promega). The labeling reaction (5 μl) was incubated with GST fusion proteins in a total volume of 200 μl of GST buffer (20 mM Tris-HCl, pH 8.0, 150 mM KCl, 5 mM DTT, 2 mM EDTA, 10% glycerol, 0.5% non fat dry milk, 0.1% NP-40) for 1 h at 4° C. with rocking. Reactions were washed five times in the same buffer, and bound proteins were resolved on denaturing SDS-PAGE gels for analysis by autoradiography.
After extensive washing, the bound material was tested for HDAC activity.

GST-HDAC4(aa 612-1084) = molecular target: B1; test: repeated incubation of 293 or SupT1 extracts with the GST fusion, western blot of the depleted extract
Procedure: as §1, §2

Sequence of endogenous HDAC1 (Q13547 whole entry, the tested form may be a part): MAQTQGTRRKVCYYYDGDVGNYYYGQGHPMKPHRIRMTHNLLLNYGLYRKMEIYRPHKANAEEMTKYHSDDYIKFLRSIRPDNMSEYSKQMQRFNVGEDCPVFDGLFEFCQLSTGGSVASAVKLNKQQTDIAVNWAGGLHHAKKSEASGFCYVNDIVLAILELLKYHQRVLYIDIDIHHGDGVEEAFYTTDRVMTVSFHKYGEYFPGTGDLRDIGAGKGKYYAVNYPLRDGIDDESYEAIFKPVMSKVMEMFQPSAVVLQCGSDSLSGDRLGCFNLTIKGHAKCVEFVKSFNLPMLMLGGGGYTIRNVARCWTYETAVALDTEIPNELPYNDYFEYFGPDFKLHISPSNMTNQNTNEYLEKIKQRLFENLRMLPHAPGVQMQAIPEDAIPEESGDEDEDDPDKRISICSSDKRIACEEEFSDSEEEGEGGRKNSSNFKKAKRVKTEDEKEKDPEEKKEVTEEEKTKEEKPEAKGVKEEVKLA

Binder: B1
binding result (endogenous HDAC1): no binding | HDAC activity associated with the GST pull-down from GST-HDAC4 depleted lysate against GST depleted lysate (fold reduction) (endogenous HDAC3, O15379): 3

Binder: B2
HDAC activity, nuclear against cytoplasmic fraction (endogenous HDAC3, O15379): 4.5 times higher | HDAC activity of HDAC7-FLAG immunoprecipitated from the cytoplasmic fraction of 293 cells (endogenous HDAC3 [1]): 3240 counts/min | HDAC activity of HDAC7-FLAG immunoprecipitated from the nuclear fraction of 293 cells (endogenous HDAC3 [1]): 14800 counts/min

Binder: B3
binding result [2]: no binding | binding result [3]: no binding

Binder: B4
binding result (endogenous HDAC3 [4]): no binding

Binder: B5
binding result (GST-HDAC4(aa 612-1084)): binds
